Values quoted from earlier work as cited in PMC8494837.
pKd: −log10 of the molar value.

Target: Ubiquitin (Homo sapiens) (UniProt P0CG47)

Chain of CXCR4 (P61073 whole entry): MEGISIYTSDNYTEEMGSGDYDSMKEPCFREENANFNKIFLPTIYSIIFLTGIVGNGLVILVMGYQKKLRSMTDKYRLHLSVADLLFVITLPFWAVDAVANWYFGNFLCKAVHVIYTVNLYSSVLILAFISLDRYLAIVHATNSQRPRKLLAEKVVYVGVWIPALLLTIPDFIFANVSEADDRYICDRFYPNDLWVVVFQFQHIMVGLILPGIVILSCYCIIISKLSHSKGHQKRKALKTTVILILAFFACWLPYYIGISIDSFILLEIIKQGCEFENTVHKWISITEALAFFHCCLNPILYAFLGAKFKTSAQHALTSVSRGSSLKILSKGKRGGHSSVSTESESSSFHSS

## CXCR4 (from UniProt P61073)
  pKd: 7.08
